According to patent publication US20250215097A1 (BEIJING TIANNUOJIANCHENG PHARMA TECH, published 2025):

What was measured:
[1] = molecular target: T1, FcγRIIIAF158 (UniProt P08637 17-208); experiment: SPR (Biacore T200), antibody captured by anti-human IgG F(ab')2 on CM5, FcγRIIIA as analyte; FcγRIIIAF158
T1 construct: F158 allotype; also called FcγRIIIA158F
Experimental: (§1) The affinities of the Fc function-enhanced humanized CCR8 antibodies to FcγRIIIAV158 and FcγRIIIAF158 were detected by using a surface plasmon resonance technology (SPR/Biacore T200). A coupling reagent Amine Coupling Kit (GE Healthcare BR-1000-50) was used to couple Goat Anti-Human IgG F(ab′)2 to the surface of a CM5 chip. h87D8 H2K4 e5 or h87D8 H2K4 was captured through high-affinity binding with the antibodies and then gradiently diluted FcγRIIIAV158 or FcγRIIIAF158 was injected in sequence. The binding time was set to be 120 seconds, the dissociation time was set to be 200 seconds, regeneration was performed for 30 seconds by 10 mM Glycine-HCl with the pH value of 1.75, and the flow rate was set to be […]. The measured data were fitted to obtain an equilibrium dissociation constant. The affinities of h87D8 H2K4 e5 or h87D8 H2K4 to FcγRIIIAV158 and FcγRIIIAF158 were respectively measured. […] The binding of h87D8 H2K4 e5 to FcγRIIIAV158 and FcγRIIIAF158 was stronger than that of h87D8 H2K4.

[2] = molecular target: T2, human CCR8 (human, UniProt P51685 1-355); experiment: cell-based or functional assay
[3] = molecular target: T3, rabbit CCR8 (rabbit); experiment: flow cytometry on HEK293-rabbit CCR8 cells
T3 construct: Transiently expressed on HEK293 cells; also called HEK293-rabbit CCR8 cells; rabbit CCR8+ cells
T3 chain: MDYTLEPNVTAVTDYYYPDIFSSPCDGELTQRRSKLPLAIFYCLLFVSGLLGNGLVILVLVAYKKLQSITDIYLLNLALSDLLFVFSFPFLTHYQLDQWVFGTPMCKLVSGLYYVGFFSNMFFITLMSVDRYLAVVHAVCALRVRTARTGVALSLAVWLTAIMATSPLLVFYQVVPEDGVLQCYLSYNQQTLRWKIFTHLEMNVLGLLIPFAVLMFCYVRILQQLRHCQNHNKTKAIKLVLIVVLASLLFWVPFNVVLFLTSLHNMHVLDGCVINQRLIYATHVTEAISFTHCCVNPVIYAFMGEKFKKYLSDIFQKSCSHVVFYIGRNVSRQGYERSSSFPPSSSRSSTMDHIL
Experimental: A lentiviral vector plasmid containing rabbit CCR8 was constructed by using a rabbit CCR8 cDNA (biosynthesized by GENEWIZ, Suzhou and having the amino acid sequence shown in SEQ ID NO. 112) as a template. The lentiviral vector plasmid containing rabbit CCR8 was transfected into HEK293 cells (hereinafter referred to HEK293-rabbit CCR8 cells) by using PEI MAX® (Polysciences 9002-98-6) as a transfection reagent referring to instructions of a transfection reagent. 24 hours after the transfection, 5×10⁴ HEK293-rabbit CCR8 cells were added per well in a 96-well U-shaped plate and centrifuged to discard the supernatant. 100 μL of a gradiently diluted h87D8 H2K4 e5 or anti-KLH isotype control antibody was added per well and the mixture was incubated on ice for 60 minutes. After the unbound primary antibody was washed away, 50 μL of a secondary antibody AlexaFluro647 anti-human IgG (Jackson Immuno Research #109-606-170) was added per well and the mixture was incubated on ice for 30 minutes. After the washing. […] Then excess secondary antibody was washed away with 0.5% BSA, the cells were resuspended by adding a PBS solution, and binding of the antibody to the cells was detected using a flow cytometer (Intellicyte iQue). The fluorescence value of a PI-negative cell population was analyzed. […]

[4] = molecular target: T2, human CCR8; experiment: cell-based or functional assay; remark: listed apart in the source
[5] = molecular target: T4, FcγRIIIAV158 (UniProt P08637 17-208); experiment: SPR (Biacore T200), antibody captured by anti-human IgG F(ab')2 on CM5, FcγRIIIA as analyte; FcγRIIIAV158
T4 construct: V158 allotype; also called FcγRIIIA158V
Experimental: as §1

T2 sequence (P51685 whole entry): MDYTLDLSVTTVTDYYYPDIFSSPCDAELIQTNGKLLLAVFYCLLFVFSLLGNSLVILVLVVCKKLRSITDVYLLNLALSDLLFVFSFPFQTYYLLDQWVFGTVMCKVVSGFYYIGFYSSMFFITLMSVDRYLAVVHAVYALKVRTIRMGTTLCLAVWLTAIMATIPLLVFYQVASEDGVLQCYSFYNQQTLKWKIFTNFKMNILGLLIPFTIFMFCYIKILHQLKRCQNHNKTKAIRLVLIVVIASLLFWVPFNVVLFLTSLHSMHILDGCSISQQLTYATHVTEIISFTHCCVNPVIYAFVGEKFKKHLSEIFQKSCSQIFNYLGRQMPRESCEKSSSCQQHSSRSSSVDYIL
T1 sequence (P08637 17-208 limits assumed): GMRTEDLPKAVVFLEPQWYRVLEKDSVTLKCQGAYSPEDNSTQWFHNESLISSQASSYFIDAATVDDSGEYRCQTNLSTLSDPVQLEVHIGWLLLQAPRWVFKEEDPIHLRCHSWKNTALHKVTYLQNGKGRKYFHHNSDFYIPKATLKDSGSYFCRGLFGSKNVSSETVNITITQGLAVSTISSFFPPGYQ
T4 sequence (P08637 17-208 F176V limits assumed): as the sequence (P08637 17-208 limits assumed) above, with F160V counted along it

B1: h87D8 H2K4 hIgG1 e5 (antibody)
heavy: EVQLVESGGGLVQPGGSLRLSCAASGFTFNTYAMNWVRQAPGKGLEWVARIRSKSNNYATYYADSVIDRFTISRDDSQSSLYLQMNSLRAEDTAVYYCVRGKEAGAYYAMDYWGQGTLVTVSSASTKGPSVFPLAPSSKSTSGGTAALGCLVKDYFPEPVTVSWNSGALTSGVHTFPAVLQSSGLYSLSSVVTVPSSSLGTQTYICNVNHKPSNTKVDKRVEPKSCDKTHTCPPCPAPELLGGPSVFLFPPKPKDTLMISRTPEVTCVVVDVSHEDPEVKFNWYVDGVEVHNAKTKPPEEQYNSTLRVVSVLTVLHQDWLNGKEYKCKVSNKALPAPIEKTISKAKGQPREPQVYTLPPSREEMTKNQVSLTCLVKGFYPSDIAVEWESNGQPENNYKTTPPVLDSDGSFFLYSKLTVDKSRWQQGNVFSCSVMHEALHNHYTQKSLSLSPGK
light: DIVMTQSPLSLPVTPGEPASISCRSSKSLLHSNYNTYLYWFLQKPGQSPQLLIYRTSNLASGVPDRFSGSGSGTDFTLKISRVEAEDVGVYYCMQHLEYPLTFGQGTKLEIKRTVAAPSVFIFPPSDEQLKSGTASVVCLLNNFYPREAKVQWKVDNALQSGNSQESVTEQDSKDSTYSLSSTLTLSKADYEKHKVYACEVTHQGLSSPVTKSFNRGEC
notes: also called h87D8 H2K4 e5; h87D8H2K4e5; copies: 2 + 2
- Kd [1]: 433 nM
- ADCC EC50 (nM), PBMC FcγRIIIA158F/F effectors, HEK293-hCCR8 targets [2]: 0.02 nM
- ADCC EC50 (nM), PBMC FcγRIIIA158V/V effectors, HEK293-hCCR8 targets [2]: 0.01 nM
- ADCC maximal lysis rate, PBMC FcγRIIIA158F/F effectors, HEK293-hCCR8 targets [2]: 77%
- ADCC maximal lysis rate, PBMC FcγRIIIA158V/V effectors, HEK293-hCCR8 targets [2]: 75%
- EC50 [3]: 0.21 nM
- ADCC half-maximal effective concentration EC50, NK92-CD16A effectors, HuT78 targets [4]: 0.53 nM
- ADCC maximal lysis rate, NK92-CD16A effectors, HEK293-hCCR8 targets [4]: 61%
- half-maximal effective concentration EC50 of inhibition of the Ca2+ current signal, CHO-hCCR8 cells, CCL1 stimulus [4]: 5.2 nM
- Kd [5]: 270 nM
